Laboratory results taken from patent publication US20260108496A1, “METHODS FOR REPROGRAMING EXHAUSTED T CELLS AND BOOSTING IMMUNE CHECKPOINT BLOCKADE THERAPY FOR CANCER” (Ohio State Innovation Foundation, priority 2022, published 2026).

Legend:
human CD8+ T cells [1] = assay: whole-genome bisulfite sequencing of human CD8+ T cells; format: cell-based; settings: combined with RepSox
Procedure: Human CD8+ T cells were sorted on days 0 (naïve), 7, and 28, and genomic DNA was extracted and bisulfite-treated to convert unmethylated cytosine to uracil residues using the EZ DNA Methylation-Direct Kit (Zymo). DNA libraries were prepared using Swift Accel-NGS® D Methyl-Seq DNA Library Kit according to the manufacturer's protocol. The libraries were purified by the AMPureXP Beads followed by QC using Qubit method, and the purified DNA was captured on an Illumina flow cell for cluster generation. Libraries were sequenced on the NovaSeq-S2 platform following the manufacturer's protocols. Sequencing data were aligned to the Hg38 genome using BSMAP. Adapter were trimmed from FASTQ sequences (trimglore) and mapped to the hg38 genome using the BSMAP v. 2.74 software. CpGs were extracted by the methratio.py in the BSMAP package. Differential analysis of CpG methylation among the datasets was determined with a Bayesian hierarchical model to detect regional methylation differences with at least three CpG site. Differentially methylated regions (DMRs) were identified using Bioconductor package DSS and custom R scripts with a threshold of 30% change in methylation ratio and P-value <0.01 with at least 10 reads per CpG site as a cutoff.

Dysf. CD8+ T cells = assay: reprogramming treatment of Dysf. (chronic TCR plus TGFβ1) human CD8+ T cells; format: cell-based; settings: sorted most dysfunctional subset, added to RepSox
Procedure: On day 7, viable CD8+ T cells were FACS-purified using the Sony MA900 cell sorter. Purified CD8+ T cells were then continuously stimulated in plates coated with anti-CD3 only (5 ug/ml). Media was replenished every 2-3 days, and cells were incubated at 37 C and 5% CO2 throughout the duration of the experiment. Human TGFβ1 (5 ng/ml, Peprotech) was added to the media starting on day 7. Treatment with RepSox (25 μM) and SB4 (10 μM) (MedChemExpress LLC) or vehicle control (DMSO, ThermoFisher) were added to the media starting on day 14 or 21. Vitamin C (100 μM, MedChemExpress LLC) was added to the media starting on day 21. For the acute TCR stimulation condition, anti-CD3 was no longer added to the media starting on day 7. For recovery experiments in FIG. 16 and FIGS. 22 and 26, CD8+ T cells were rested from TCR stimulation and TGFβ1 starting on day 28 for 7-14 days in T cell media containing recombinant human IL-15 only (10 ng/ml).
On days 7, 14, 21, and 28 (and day 35 and 42 for recovery experiments), human CBMCs were stimulated with PMA/Ionomycin (Cell Stimulation Cocktail plus protein transport inhibitors, eBioscience) for 3 hours at 37° C., 5% CO2. Incubation was followed immediately by antibody intracellular staining for flow cytometry.
Human CBMCs from ex vivo stimulation experiments (acute or chronic TCR, and chronic TCR+TGFβ1) were labeled with 5(6)-Carboxyfluorescein diacetate N-succinimidyl ester (CFSE) (1 μM, Sigma) by staining in PBS for 7 minutes at room temperature, followed by quenching with 20% FBS. Proliferation was tracked on days 35 and 42 by assessing CFSE fluorescence via flow cytometry. Each peak of CFSE fluorescence signal represents one cell division cycle.

adult CD8+ T cells = assay: chronic TCR plus TGFβ1 stimulation of adult CD8+ T cells from healthy blood donors; format: cell-based, human
Procedure: Isolated adult PBMCs were stained on day 0 for cell sorting of naïve CD8+ T cells (viable CD3+ CD8+ CCR7+ CD45RO−) and viable CD3− PBMCs using the Sony MA900 sorter. The cells were seeded into 96-well U-bottom plate (˜5,000 naïve T cells+45,000 CD3− cells per well) on day 0 with 30 ng/ml of purified anti-human CD3, in complete T cell medium as described above. On day 4, the wells were transferred to a 96-well flat-bottom plate coated with anti-human CD3 and CD28 antibodies as described above, and stimulation was continued for an additional three days. On day 7, the cells were returned to culture with continuous stimulation using soluble anti-CD3 (30 ng/ml) or repeated plate-bound anti-CD3 stimulation through day 28. Media was replenished every 2-3 days. Treatments were added to the media as described above for CBMCs experiments.

P14 CD8 T cells = assay: in-vitro co-culture of P14 CD8 T cells with CT2A-gp33 tumor cells (Example 1); format: cell-based, mouse; settings: P14 cells
Text: To study their epigenetic (re)programming, we developed a novel in-vitro model of CD8 T cell exhaustion. First, we optimized conditions for in-vitro co-culture of gp33-expressing murine brain tumor cells (CT2A-gp33) and TCR transgenic gp33-specific CD8 T cells (P14 cells). We were able to enforce differentiation of anti-tumor CD8 T cells under their persistent TCR stimulation by repeated exposure to the tumor antigen and tumor-derived factors, such as TGFβ1. […] However, with prolonged exposure to the tumor antigen, the effector CD8 T cells progressively lose cytokine production and tumor killing activity (FIGS. 8A, 8B, and 8C).
To assess the impact of TGFβ1 signaling on the progression of CD8 T cells toward dysfunction, we treated co-cultures with TGFβ1 or RepSox (also known as E-616452) (2-(3-(6-Methylpyridine-2-yl)-1H-pyrazol-4-yl)-1,5-naphthyridine) as shown in the formula: […]
RepSox is a potent selective inhibitor of the TGFβ type 1 receptor (ALK5)—for 11 days after effector differentiation was complete (day 6).
We also examined the impact of BMP-2/4 signaling on RepSox-treated P14 CD8 T cells. […] Taken together, our findings indicate that TGFβ1-signaling not only accelerates the development of T cell dysfunction, but also maintains silencing of lymphoid homing markers on CD8 T cells. Importantly, our findings support the feasibility of using this novel in-vitro model as a tractable tool that can guide our in-vivo work by providing first-line mechanistic studies.

human CD8+ T cells [2] = assay: chronic TCR stimulation of human CBMCs in the presence of TGFβ1; format: cell-based
Procedure: For “Weak TCR” stimulation, 30 ng/ml of purified monoclonal anti-human CD3 (clone: OKT3; BioLegend) was continuously added onto the seeded CBMCs to provide TCR stimulation plus natural costimulation via CD80/CD86 on Fc-expressing CBMCs that survive in the first few days. For “Strong TCR” stimulation setting, flat-bottom plates were coated with purified monoclonal anti-human CD3 (5 ug/ml) and anti-human CD28 (1 ug/ml) (clone: CD28.2; BioLegend) at 4° C. overnight, then CMBCs were isolated and seeded in complete T cell medium as described above on day 0. On day 7, viable CD8+ T cells were FACS-purified using the Sony MA900 cell sorter. Purified CD8+ T cells were then continuously stimulated in plates coated with anti-CD3 only (5 ug/ml). Media was replenished every 2-3 days, and cells were incubated at 37 C and 5% CO2 throughout the duration of the experiment. Human TGFβ1 (5 ng/ml, Peprotech) was added to the media starting on day 7. Treatment with RepSox (25 μM) and SB4 (10 μM) (MedChemExpress LLC) or vehicle control (DMSO, ThermoFisher) were added to the media starting on day 14 or 21. Vitamin C (100 μM, MedChemExpress LLC) was added to the media starting on day 21. For the acute TCR stimulation condition, anti-CD3 was no longer added to the media starting on day 7. […]

[3] = tested on: SMAD1/5/8 phosphorylation; settings: cited from earlier work
human CD8 T cells = assay: treatment of human CD8 T cells with BMP ligands under chronic strong TCR stimulation; format: cell-based; settings: for expression levels of terminal exhaustion-associated molecules (CD39, CD101, CD103): day 21; for frequencies of IFNγ-producing CD8 T cells: days 14 and 21
Text: BMP ligands can signal through type 1 (BMPR1, ACVR1) or type 2 receptors (BMPR2, ACVR2), which typically form heterotetramers upon ligand binding. Once heterotetramers are activated by ligands, they phosphorylate SMAD1/5/8 that binds to SMAD4 and translocates to nucleus and bind to target genes.

[4] = adult naïve CD8+ T cells, post-effector exposure

Molecule: O=C1O[C@H]([C@@H](O)CO)C(O)=C1O [vitamin C]
- DNA methylation patterns in Dysf. CD8+ T cells (human CD8+ T cells [1]): more pronounced
- effector cytokine production (Dysf. CD8+ T cells): further enhanced

Molecule: TGFβ1: Human TGFβ1 cytokine (5 ng/ml, Peprotech)
- expression of dysfunction-associated markers (adult CD8+ T cells; [4]): increased expression
- function of chronically stimulated adult CD8+ T cells (adult CD8+ T cells; [4]): induced functional impairment
- polyfunctionality (adult CD8+ T cells; adult polyclonal effector memory (CD45RO+ CCR7−) CD8+ T cells): did not impact
- CD103 expression (adult CD8+ T cells; adult polyclonal effector memory CD8+ T cells): significant upregulation
- production of IFNγ and TNFα (P14 CD8 T cells; persistent treatment for 11 days from day 6 of co-culture): accelerated the impairment
- expression of T-bet and Granzyme B (P14 CD8 T cells; persistent treatment from day 6): repressed expression
- effector functions in chronically stimulated T cells (human CD8+ T cells [2]; TGFβ1 started after effector differentiation (day 7-28)): significantly reduced
- survival of chronically stimulated CD8+ T cells (human CD8+ T cells [2]; strong TCR stimulation): supported the survival

B1: BMP12: BMP ligand (protein, UniProt Q7Z4P5 322-450, looked up)
Growth/differentiation factor …: TALAGTRTAQGSGGGAGRGHGRRGRSRCSRKPLHVDFKELGWDDWIIAPLDYEAYHCEGLCDFPLRSHLEPTNHAIIQTLLNSMAPDAAPASCCVPARLSPISILYIDAANNVVYKQYEDMVVEACGCR
- activation of SMAD1/5/8 phosphorylation [3]: medium or weak

B2: BMP4: natural BMP ligand, bone morphogenic protein 4 (protein, UniProt P12644 293-408, looked up)
Bone morphogenetic protein 4: SPKHHSQRARKKNKNCRRHSLYVDFSDVGWNDWIVAPPGYQAFYCHGDCPFPLADHLNSTNHAIVQTLVNSVNSSIPKACCVPTELSAISMLYLDEYDKVVLKNYQEMVVEGCGCR
modifications: Bone morphogenetic protein 4
- numbers of chronically stimulated human CD8 T cells (human CD8 T cells; chronic strong TCR stimulation): preserved significantly higher numbers
- expression levels of terminal exhaustion-associated molecules (CD39, CD101, CD103) (human CD8 T cells): downregulated
- frequencies of IFNγ-producing CD8 T cells (human CD8 T cells): significantly higher frequencies
- activation of SMAD1/5/8 phosphorylation [3]: strong

B3: BMP10: natural BMP ligand (protein, UniProt O95393 317-424, looked up)
Bone morphogenetic protein 10: NAKGNYCKRTPLYIDFKEIGWDSWIIAPPGYEAYECRGVCNYPLAEHLTPTKHAIIQALVHLKNSQKASKACCVPTKLEPISILYLDKGVVTYKFKYEGMAVSECGCR
- expression levels of terminal exhaustion-associated molecules (CD39, CD101, CD103) (human CD8 T cells): downregulated
- frequencies of IFNγ-producing CD8 T cells (human CD8 T cells): significantly higher frequencies
- activation of SMAD1/5/8 phosphorylation [3]: medium or weak

B4: BMP14: BMP ligand (protein, UniProt P43026 382-501, looked up)
Growth/differentiation factor …: APLATRQGKRPSKNLKARCSRKALHVNFKDMGWDDWIIAPLEYEAFHCEGLCEFPLRSHLEPTNHAVIQTLMNSMDPESTPPTCCVPTRLSPISILFIDSANNVVYKQYEDMVVESCGCR
modifications: Growth/differentiation factor 5
notes: BMP ligand
- activation of SMAD1/5/8 phosphorylation [3]: medium or weak

B5: BMP6: natural BMP ligand (protein, UniProt P22004 375-513, looked up)
Bone morphogenetic protein 6: SASSRRRQQSRNRSTQSQDVARVSSASDYNSSELKTACRKHELYVSFQDLGWQDWIIAPKGYAANYCDGECSFPLNAHMNATNHAIVQTLVHLMNPEYVPKPCCAPTKLNAISVLYFDDNSNVILKKYRNMVVRACGCH
modifications: Bone morphogenetic protein 6
notes: natural BMP ligand
- expression levels of terminal exhaustion-associated molecules (CD39, CD101, CD103) (human CD8 T cells): downregulated
- activation of SMAD1/5/8 phosphorylation [3]: strong
